Residue numbers refer to the chain shown, from its start. One block for each binder: values may come before it.
Columns and labels:
[1] = target: VEGF (as used in the VEGFR competition ELISA); assay: competition ELISA, VEGF binding to hVEGFR1; ratio to reference Luc
[2] = target: T1, recombinant human VEGF165 (PeproTech EC Ltd.) (human, UniProt P15692-4 27-191); assay: SPR, BIAcore T100, hVEGF165 amine-coupled on CM4 chip, scFv as analyte
T1 construct: Amine-coupled to a CM4 chip; also called hVEGF165
Procedure: The Biacore-binding ability of scFvs was tested and the binding affinity was measured using the exemplary surface plasmon resonance method with BIAcore™-T100. […] For the surface plasmon resonance experiment, carboxymethylated dextran biosensor chips (CM4, GE Healthcare) were activated with N-ethyl-N′-(3-dimethylaminopropyl) carbodiimide hydrochloride and N-hydroxysuccinimide according to the supplier's instructions. […] The 4th flow cell of each chip was treated similarly except no proteins were immobilized prior to blocking, and the flow cell was used as in-line reference. […] The apparent dissociation rate constant (kd), the apparent association rate constant (kₐ) and the apparent dissociation equilibrium constant (KD) were calculated using one-to-one Langmuir binding model with BIAcore T100 evaluation Software version 1.1.

T1 sequence (P15692 other isoform, or with tags, fused parts or gaps limits assumed, form in doubt): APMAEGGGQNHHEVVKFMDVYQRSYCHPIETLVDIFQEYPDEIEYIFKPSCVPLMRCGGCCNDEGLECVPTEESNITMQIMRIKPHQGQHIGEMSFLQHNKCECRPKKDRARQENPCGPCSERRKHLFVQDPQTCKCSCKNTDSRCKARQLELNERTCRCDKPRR
VEGF (as used in the VEGFR competition ELISA), sequence (P15692 whole entry): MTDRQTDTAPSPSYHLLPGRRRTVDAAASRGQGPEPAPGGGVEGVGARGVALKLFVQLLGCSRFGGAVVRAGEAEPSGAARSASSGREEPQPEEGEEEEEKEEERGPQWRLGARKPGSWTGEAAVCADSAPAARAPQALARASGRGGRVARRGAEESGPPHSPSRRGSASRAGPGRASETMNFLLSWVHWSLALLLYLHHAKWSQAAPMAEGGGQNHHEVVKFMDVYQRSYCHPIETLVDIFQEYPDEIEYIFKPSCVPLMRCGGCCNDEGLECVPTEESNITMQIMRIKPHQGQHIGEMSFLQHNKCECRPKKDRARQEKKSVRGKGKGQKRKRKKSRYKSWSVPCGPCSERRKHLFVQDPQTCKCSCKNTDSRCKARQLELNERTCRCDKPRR

- Rel. activity hVEGR1 comp. ELISA (EC50Luc [nM]/EC50test [nM]) [1]: 0.09 ratio
- Kd [2]: 3.37 nM
- koff [2]: 0.00282 s⁻¹
- kon [2]: 838000 M⁻¹ s⁻¹
B1: 509-maxII (scFv)
chain: EIVMTQSPSTLSASVGDRVIITCQASQNIRIWLSWYQQKPGKAPKLLIYKASTLESGVPSRFSGSGSGTEFTLTISSLQPDDFATYYCQNNAHYSTNGGTFGQGTKLTVLGGGGGSGGGGSGGGGSGGGGSEVQLVESGGGLVQPGGSLRLSCTASGFSLSSYYMSWVRQAPGKGLEWVGILDYVGDTDYASWAKGRFTISKDASKNTVYLQMNSLRAEDTAVYYCARTDDSRGWGLNIWGQGTLVTVSS

- Rel. activity hVEGR1 comp. ELISA (EC50Luc [nM]/EC50test [nM]) [1]: 2.9 ratio
B2: 509-min (scFv)
scFv: B1 chain with T69A, T154A, S166C, G180S, I181C, K202R, A204N, V209L, R228K
notes: NH2-VL-linker-VH-COOH; Min graft on FW1.4; also called 854

- Kd [2]: 34.1 nM
- koff [2]: 0.00921 s⁻¹
- kon [2]: 271000 M⁻¹ s⁻¹
B3: 534-min C-His (scFv, not shown: small tags and cut ends)
scFv: EIVMTQSPSTLSASVGDRVIITCQASQSINWLSWYQQKPGKAPKLLIYKESTLASGVPSRFSGSGSGAEFTLTISSLQPDDFATYYCQNNYDSGNNGFPFGQGTKLTVLGGGGGSGGGGSGGGGSGGGGSEVQLVESGGGLVQPGGSLRLSCAASGFSLSYYYMSWVRQAPGKGLEWVSIIGPGDYTDYASWAKGRFTISRDNSKNTLYLQMNSLRAEDTAVYYCAKGDDNSGWGEDIWGQGTLVTVSS
notes: Min graft with C-His in its name; also called 807

- Rel. activity hVEGR1 comp. ELISA (EC50Luc [nM]/EC50test [nM]) [1]: 0.7 ratio
- Kd [2]: 2.53 nM
- koff [2]: 0.00128 s⁻¹
- kon [2]: 505000 M⁻¹ s⁻¹
B4: 511-min (scFv)
scFv: EIVMTQSPSTLSASVGDRVIITCQASQSINIWLSWYQQKPGKAPKLLIYRASTLASGVPSRFSGSGSGAEFTLTISSLQPDDFATYYCQANYAYSAGYGAAFGQGTKLTVLGGGGGSGGGGSGGGGSGGGGSEVQLVESGGGLVQPGGSLRLSCAASGFSLNTYYMNWVRQAPGKGLEWVSIIAPDDTTYYASWAKSRFTISRDNSKNTLYLQMNSLRAEDTAVYYCAKSGDTTAWGADIWGQGTLVTVSS
notes: NH2-VL-linker-VH-COOH; Min graft on FW1.4; also called 801

- Rel. activity hVEGR1 comp. ELISA (EC50Luc [nM]/EC50test [nM]) [1]: 4.8 ratio
B5: 578-min (scFv)
scFv: EIVMTQSPSTLSASVGDRVIITCQASEIIHSWLAWYQQKPGKAPKLLIYLASTLASGVPSRFSGSGSGAEFTLTISSLQPDDFATYYCQNVYLASTNGANFGQGTKLTVLGGGGGSGGGGSGGGGSGGGGSEVQLVESGGGLVQPGGSLRLSCAASGFSLTDYYYMTWVRQAPGKGLEWVSFIDPDDDPYYATWAKGRFTISRDNSKNTLYLQMNSLRAEDTAVYYCAKGDHNSGWGLDIWGQGTLVTVSS
notes: NH2-VL-linker-VH-COOH; Min graft on FW1.4; also called 820

- Rel. activity hVEGR1 comp. ELISA (EC50Luc [nM]/EC50test [nM]) [1]: 57 ratio
B6: 567-min (scFv)
chain: EIVMTQSPSTLSASVGDRVIITCQADQSIYIWLSWYQQKPGKAPKLLIYKASTLESGVPSRFSGSGSGAEFTLTISSLQPDDFATYYCQNNAHYSTNGGTFGQGTKLTVLGGGGGSGGGGSGGGGSGGGGSEVQLVESGGGLVQPGGSLRLSCAASGFSLSDYYMCWVRQAPGKGLEWVSCLDYFGSTDDASWAKGRFTISRDNSKNTLYLQMNSLRAEDTAVYYCAKTDDSRGWGLNIWGQGTLVTVSS
